# Reference: paper PMC4117747, “The N-terminus of Mcm10 is important for interaction with the 9-1-1 clamp and in resistance to DNA damage” (Nucleic Acids Research, 2014)
# T1: Mcm10Δ150 (LexA fusion) (S. cerevisiae, UniProt P32354 151-571)
# T1 construct: Mcm10, budding yeast, first 150 amino acids deleted; also called pBTM116-LEXA-mcm10Δ150; LexA-tagged Mcm10Δ150; source: yeast two-hybrid fusion (pBTM116); also overexpressed from the ADH1 promoter in yeast, in whole cell extract, for Co-IP
# T1 sequence (looked up): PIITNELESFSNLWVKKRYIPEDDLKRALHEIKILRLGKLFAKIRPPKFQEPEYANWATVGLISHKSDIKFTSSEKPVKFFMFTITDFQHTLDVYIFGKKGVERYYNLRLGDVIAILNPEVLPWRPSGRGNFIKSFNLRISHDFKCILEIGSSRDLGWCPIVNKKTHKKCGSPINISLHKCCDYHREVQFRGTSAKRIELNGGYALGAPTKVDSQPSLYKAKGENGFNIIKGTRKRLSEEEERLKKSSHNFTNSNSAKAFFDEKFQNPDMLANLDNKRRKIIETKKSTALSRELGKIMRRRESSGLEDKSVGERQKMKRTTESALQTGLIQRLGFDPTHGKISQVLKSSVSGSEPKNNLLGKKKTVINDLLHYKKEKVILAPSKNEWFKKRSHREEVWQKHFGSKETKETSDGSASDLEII
# B1: Mcm10 (LexA fusion, wild type) (natural protein, S. cerevisiae, UniProt P32354 1-571, looked up)
# chain: MNDPREILAVDPYNNITSDEEDEQAIARELEFMERKRQALVERLKRKQEFKKPQDPNFEAIEVPQSPTKNRVKVGSHNATQQGTKFEGSNINEVRLSQLQQQPKPPASTTTYFMEKFQNAKKNEDKQIAKFESMMNARVHTFSTDEKKYVPIITNELESFSNLWVKKRYIPEDDLKRALHEIKILRLGKLFAKIRPPKFQEPEYANWATVGLISHKSDIKFTSSEKPVKFFMFTITDFQHTLDVYIFGKKGVERYYNLRLGDVIAILNPEVLPWRPSGRGNFIKSFNLRISHDFKCILEIGSSRDLGWCPIVNKKTHKKCGSPINISLHKCCDYHREVQFRGTSAKRIELNGGYALGAPTKVDSQPSLYKAKGENGFNIIKGTRKRLSEEEERLKKSSHNFTNSNSAKAFFDEKFQNPDMLANLDNKRRKIIETKKSTALSRELGKIMRRRESSGLEDKSVGERQKMKRTTESALQTGLIQRLGFDPTHGKISQVLKSSVSGSEPKNNLLGKKKTVINDLLHYKKEKVILAPSKNEWFKKRSHREEVWQKHFGSKETKETSDGSASDLEII
# notes: Mcm10, budding yeast, called full-length in the Co-IP with LexA-tagged constructs; also called LexA-tagged Mcm10; full-length Mcm10; source: yeast two-hybrid fusion (pBTM116); also overexpressed in yeast, in whole cell extract, for Co-IP
# Target: T1, Mcm10Δ150 (LexA fusion)
# Assay: two-hybrid; yeast two-hybrid with pBTM116 (LexA) and pACT2 fusions; β-galactosidase activity in cell extracts, in triplicate from at least three clones
# Conditions: partners not purified
binder,measurement,value
B1,reduction of binding relative to wild-type Mcm10,~85%
